{
  "source": "the supplement of paper PMC9170038",
  "data": [
    {"test_system": "MS2 coat protein", "experiment": "apparent KD of MS2 coat protein, switch ON state; designed switch direction (-1 OFF switch, 1 ON switch): -1; higher = weaker reporter binding", "conditions": "FMN input: 0 or 200 uM; Eterna round: R93 (includes R88 designs)", "in_short": "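On-chip transcription from Illumina sequencing clusters produced the designed RNA switches. These were titrated with SNAP-549-labelled MS2 coat protein (twofold steps, 0.7 or 1.5 nM to 3 µM) in 100 mM Tris-HCl pH 7.5, 80 mM KCl, 4 mM MgCl2, with or without constant ligand. The apparent KD given is the per-design median of normalised cluster binding-curve fits.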", "units": {"apparent KD of MS2 coat protein": "nM"}, "values": [
      {"sequence": "AAGAUGUGAGGAUAUGCUGCUCGUCACAAAAGUGAUGAGUAGCAGAAGGUACAUGAGGAUCACCCAUGUAAAGA [JL eternac mod 7]", "apparent KD of MS2 coat protein": 32.4},
      {"sequence": "AACUGACAUGAGGAUCACCCAUGUCAGGAUAUGACAUCGAAAAAUAAAUAAAUCGUUGUCAGAAGGGACAUGAA [Design 76: Sub-opt S]", "apparent KD of MS2 coat protein": 16.3},
      {"sequence": "AAAAUGUCAGGAUAUCUGGAUAGGAAAAAGAAAACCUAUCCAGAGAAGGGACAUGAGGAUCACCCAUGUAAAAA [JL cataway mod 3]", "apparent KD of MS2 coat protein": 92.9},
      {"sequence": "AAAAAACAUGAGGAUCACCCAUGUAAGGAUAUGUAAAAUAAAAGAAAAAUAAAGAAAAGCAGAAGGUAUAUGUA [JL wbt mod 17]", "apparent KD of MS2 coat protein": 29},
      {"sequence": "AAGAAGGAAGGAUAUACAUGAGGAUCACCCAUGUAAAAGAAAGAAAGGGAAAAGAAAAGUAGAAGGUCCAAGAA [Aakheperre Setepenre Osorkon]", "apparent KD of MS2 coat protein": 25.4},
      {"sequence": "AAAACGGUAGGAUAUACGAUUGGGAACUAGACCGAGGAACCACAUGAGGAUCACCCAUGUAGAAGGGCCAAAAA [Ex2 Malc#14]", "apparent KD of MS2 coat protein": 16.9},
      {"sequence": "AAGAGUAGAGGAUAUACAAAGGGAGAGUCGAAAGACUCAAAACAUGAGGAUCACCCAUGUAGAAGGCUACUCAA [Hyphema Seclusion Mod 62% 7]", "apparent KD of MS2 coat protein": 213},
      {"sequence": "AGCAAGUUAGGAUAUGCGAAGUCAGGACACACACUGACGAAGCAGAAGGAACAUGAGGAUCACCCAUGUAAGCA [JR_Exclusion-4 65% 4]", "apparent KD of MS2 coat protein": 22},
      {"sequence": "GAGAAGUUAGGAUAUACAGCGGGUAGCCGCGGUGGCCUUAGACAUGAGGAUCACCCAUGUAGAAGGAACGAAAA [Tebied]", "apparent KD of MS2 coat protein": 28.9},
      {"sequence": "AAGGAUAGAGGAUAUACAUAGAUACAGAUUCAUGUAGAACUACAUGAGGAUCACCCAUGUAGAAGGCUAUCAUA [AJ 32]", "apparent KD of MS2 coat protein": 27.9},
      {"sequence": "AAAACGUGAGGAUAUGCACCAAAAAAGGAAAAACGGGUACGACAUGAGGAUCACCCAUGUAGAAGGCACGAAAA [Frodo Flailing 9 - Jieux - Exclusion 2]", "apparent KD of MS2 coat protein": 40.8},
      {"sequence": "AAAAAGCUAGGAUAUACGAAAAAAAAGGGUAGAAAAAAAACACAUGAGGAUCACCCAUGUAGAAGGAGCAAAAA [Mat - Exclusion 2 - Tesla mod - D33]", "apparent KD of MS2 coat protein": 45.7},
      {"sequence": "AUCUUGUCAGGAUAUGACUACAUAAAAAAUAAAAAAUGUAGUCAGAAGGGACAUGAGGAUCACCCAUGUACCAA [Mat - Exclusion 4 - Eli mod - D96]", "apparent KD of MS2 coat protein": 20.4},
      {"sequence": "AAAUAGCAAGGAUAUACAUGAGGAUCACCCAUGUGAAAAAGAUAUGGAAUAGAAUAGAGUAGAAGGUGCAAAUA [Ex 3 Tesla 8]", "apparent KD of MS2 coat protein": 40.4},
      {"sequence": "AAAUAGUUAGGAUAUACAUGAGGAUCACCCAUGUGGACUUAUGGAGAAUAAUUUAGUGGUAGAAGGGACUAAAA [EX2 Malc#27]", "apparent KD of MS2 coat protein": 46.4},
      {"sequence": "UAUACGUGAGGAUAUGCGAAUACCACGUAAGACAUACAGACGCAGAAGGCACAUGAGGAUCACCCAUGUGAACC [JR_Exc004_Sub314]", "apparent KD of MS2 coat protein": 19.2},
      {"sequence": "AUGUACCUAGGAUAUACAUGAGGAUCACCCAUGUACUGGGAGCAAUCAAGUUAAUAUUGUAGAAGGAGGUGAAA [JR_Exc003_Sub315]", "apparent KD of MS2 coat protein": 20.1},
      {"sequence": "AAAAAACAUGAGGAUCACCCAUGUGAGGAUAUGCGAAAAAAAAAAUAAAAAAAAAAAAGUAGAAGGUACAAAAA [LROPPY Exclusion 1 - v08_deltaG=5.44]", "apparent KD of MS2 coat protein": 27.9},
      {"sequence": "AAAACGGUAGGAUAUACAGUCCGUUGUCGAAUGAUGAAAAGACAUGAGGAUCACCCAUGUAGAAGGACCGAAAA [Bienor]", "apparent KD of MS2 coat protein": 36.5},
      {"sequence": "AAAAAACAUGAGGAUCACCCAUGUUAGGAUAUGCUAUGGAAAAAUAAAAUAAAACAUAGCAGAAGGGACAAAAA [Mat - Exclusion 1 - Eli mod - D28]", "apparent KD of MS2 coat protein": 15},
      {"sequence": "AAAAAGUCAGGAUAUGUAGCAAAAGGUGAUCAAAAAAAGCUACAGAAGGGACAUGAGGAUCACCCAUGUAAAAA [Ex4: 937]", "apparent KD of MS2 coat protein": 139},
      {"sequence": "AAAAAGUGAGGAUAUCCAGAUAAAAAAACGAAAAAAAAUCUGGAGAAGGCACAUGAGGAUCACCCAUGUAUGAC [Ex 4 May 6]", "apparent KD of MS2 coat protein": 32.7},
      {"sequence": "UAAAGACAUGAGGAUCACCCAUGUGAGGAUAUCGGAGAUAACGGAACAUCAAGUUCGGCGAGAAGGCGCAGGAA [JR_Exc001_Sub405]", "apparent KD of MS2 coat protein": 33.4},
      {"sequence": "AGCACGGUAGGAUAUACGAACAAAACGGGAGAACUAAAGGGACAUGAGGAUCACCCAUGUAGAAGGACCAAGCA [Diamond 90]", "apparent KD of MS2 coat protein": 42},
      {"sequence": "ACUAAACGAGGAUAUACUAACGAACCUCAAACAUAGAUAAGACAUGAGGAUCACCCAUGUAGAAGGCGUAGACU [JR_Exc002_Sub008]", "apparent KD of MS2 coat protein": 74.6},
      {"sequence": "AACAGGUGAGGAUAUCGAACAACAACAACAACAACAACAAACGAGAAGGCACAUGAGGAUCACCCAUGUAAGAA [Exclusion 4C]", "apparent KD of MS2 coat protein": 19.6},
      {"sequence": "AAAGAUACAGGAUAUACAUGAGGAUCACCCAUGUGGAAUCAAAAAUGGGAAAAAGAAAGUAGAAGGGUAUAAAA [Ex 3 May 38]", "apparent KD of MS2 coat protein": 30.6},
      {"sequence": "AAAAUACAUGAGGAUCACCCAUGUGAGGAUAUGCUAUGGAAAUAAAAAAUAAAACAUAGCAGAAGGUACAAAAA [Mat - Exclusion 1 - Eli mod - D42]", "apparent KD of MS2 coat protein": 20.9},
      {"sequence": "GCUGGCGUAGGAUAUACAUGAGGAUCACCCAUGUGAGAGAAAAAAGUGAGAAAGAAAAGUAGAAGGACGUUAGG [salish99-ex3-116]", "apparent KD of MS2 coat protein": 40.4},
      {"sequence": "CUCUAGUCAGGAUAUGCAAGAAAAGAAGAGAAAGAAAAGAAGCAGAAGGGACAUGAGGAUCACCCAUGUAAGAA [EteRNA is fun!]", "apparent KD of MS2 coat protein": 51.3},
      {"sequence": "GUCAGCUGAGGAUAUACAGGUGAGGCCGCAUAACAAAAUAUACAUGAGGAUCACCCAUGUAGAAGGCGGAAGAC [Soreramare]", "apparent KD of MS2 coat protein": 41.1},
      {"sequence": "AAAAAACAUGAGGAUCACCCAUGUAAGGAUAUGCAAGCAAGAAGAAAGAACAGAAAAAGCAGAAGGUACACACA [Amethyst 73]", "apparent KD of MS2 coat protein": 22.4},
      {"sequence": "GAAAAGUCAGGAUAUGUACAAAAUAAAAUAAAAAUAAAAGUACAGAAGGGACAUGAGGAUCACCCAUGUAAAAG [Mat - Exclusion 4 - Mayanna - D120]", "apparent KD of MS2 coat protein": 72.4},
      {"sequence": "AAGAACAGAGGAUAUACAUGAGGAUCACCCAUGUAAAAGAAAGAAAAGGGAAAGAAAAGUAGAAGGCUGAAGAA [Ankhkheperure Smenkhkare]", "apparent KD of MS2 coat protein": 22.9},
      {"sequence": "AAGAAGUGAGGAUAUACAAAAUAAAAGAAAAGAAAGAAAGAACAUGAGGAUCACCCAUGUAGAAGGCGCAAGAA [Merhotepre Ini]", "apparent KD of MS2 coat protein": 24.5},
      {"sequence": "AAAAAUGGAGGAUAUACAUGAGGAUCACCCAUGUGUAACUAUACUAAGCGCUCCUCACGUAGAAGGCCAAAAAA [Gilly Gone Silly 14 - Jieux - Exclusion 3]", "apparent KD of MS2 coat protein": 74.1},
      {"sequence": "AGCUAGUCAGGAUAUACGAAAAUGACAGAAGACGUAAGGGAACAUGAGGAUCACCCAUGUAGAAGGGACUAGCA [Diamond 42]", "apparent KD of MS2 coat protein": 26.6},
      {"sequence": "GAAGAACAUGAGGAUCACCCAUGUCAGGAUAUACAGAAGGGAAUAAUAAAAUCUGGAAGUAGAAGGGACAAGAA [Ex 1 May 46]", "apparent KD of MS2 coat protein": 32.5},
      {"sequence": "GGAUGUGAAGGAUAUACAUGAGGAUCACCCAUGUGAGAGAAAAAAGUGAGAAAGAAAAGUAGAAGGUCGUGUCG [salish99-ex3-86]", "apparent KD of MS2 coat protein": 34.9},
      {"sequence": "AAAAAAAGAGGAUAUACGUACAUGUCGAAAGACGUGAAGGGACAUGAGGAUCACCCAUGUAGAAGGUUUAAAAA [Mat - Exclusion 2 - JL mod - D84]", "apparent KD of MS2 coat protein": 33.8},
      {"sequence": "AAAAAGAGAGGAUAUACAUGAGGAUCACCCAUGUGACACAAAAAAAAAAAAAAAAAAUGUAGAAGGCUCAAAAA [65%, Moding Exclusion3-cac2, 18]", "apparent KD of MS2 coat protein": 35.5},
      {"sequence": "AGAAAGUGAGGAUAUACAGAUAAAAAAACGAAAAAAAAUCUGUAGAAGGCACAUGAGGAUCACCCAUGUAAAGA [Mat - Exclusion 4 - Mayanna - D108]", "apparent KD of MS2 coat protein": 37.9},
      {"sequence": "AAAAAGCGAGGAUAUACAUGAGGAUCACCCAUGUGAAAGUCGAAAAAAAAGACAAAAAGUAGAAGGCGCAAAAA [Banishment 7 - Jieux - Exclusion 3]", "apparent KD of MS2 coat protein": 18.3},
      {"sequence": "AUGUAGGGAGGAUAUACAUAGAUACAGAUUCAUGUGGAACUACAUGAGGAUCACCCAUGUAGAAGGCCCUAAAA [Mat - Same state - Mayanna Mod - D125]", "apparent KD of MS2 coat protein": 27.4}
    ]}
  ]
}
